Assay results from publication PMC3408474, “Constitutive Phosphorylation of Interferon Receptor A-Associated Signaling Proteins in Systemic Lupus Erythematosus” (PLoS ONE, 2012).

How the values were obtained:
[1] = target: T1, IFNAR1 chain of the type I interferon receptor (IFNAR) (human (endogenous in PBMC), UniProt P17181 28-557); experiment: co-IP; lysates (50 µg total protein) of PBMC from SLE patients or healthy controls, cultured in medium alone or with 50 U/ml IFNβ for 0, 30 min, 1 h and 4 h; incubated overnight at 4°C with mouse anti-IFNAR1 (protein A-Sepharose 4B) and/or rabbit anti-IFNAR2 (protein G-Sepharose 4B); blotted for SOCS1, STAT2, Jak1 and Tyk2; conditions: partners not purified
T1 construct: IFNAR1 chain of the human type I interferon receptor, endogenous in peripheral blood mononuclear cells; precipitated with mouse anti-IFNAR1 and protein A-Sepharose; source: endogenous, lysate of PBMC from SLE patients or healthy controls
T1 sequence (looked up): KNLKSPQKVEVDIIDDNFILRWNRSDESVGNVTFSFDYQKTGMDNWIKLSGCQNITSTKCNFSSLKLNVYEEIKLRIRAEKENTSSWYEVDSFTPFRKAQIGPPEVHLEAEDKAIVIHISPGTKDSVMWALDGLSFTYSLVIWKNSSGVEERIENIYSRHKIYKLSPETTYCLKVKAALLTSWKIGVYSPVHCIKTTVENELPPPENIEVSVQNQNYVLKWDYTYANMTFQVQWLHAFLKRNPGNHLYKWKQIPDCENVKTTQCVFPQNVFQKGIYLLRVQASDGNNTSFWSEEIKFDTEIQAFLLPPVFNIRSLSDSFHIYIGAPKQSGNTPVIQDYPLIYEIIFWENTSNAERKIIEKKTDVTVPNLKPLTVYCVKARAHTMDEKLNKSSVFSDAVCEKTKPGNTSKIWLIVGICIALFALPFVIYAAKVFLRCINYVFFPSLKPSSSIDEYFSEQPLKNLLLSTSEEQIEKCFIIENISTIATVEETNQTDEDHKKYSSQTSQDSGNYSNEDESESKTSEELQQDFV

[2] = target: T2, IFNAR2 chain of the type I interferon receptor (IFNAR) (human (endogenous in PBMC), UniProt P48551 27-515); experiment: as above; conditions: partners not purified
T2 construct: IFNAR2 chain of the human type I interferon receptor, endogenous in peripheral blood mononuclear cells; precipitated with rabbit anti-IFNAR2 and protein G-Sepharose; source: endogenous, lysate of PBMC from SLE patients or healthy controls
T2 sequence (looked up): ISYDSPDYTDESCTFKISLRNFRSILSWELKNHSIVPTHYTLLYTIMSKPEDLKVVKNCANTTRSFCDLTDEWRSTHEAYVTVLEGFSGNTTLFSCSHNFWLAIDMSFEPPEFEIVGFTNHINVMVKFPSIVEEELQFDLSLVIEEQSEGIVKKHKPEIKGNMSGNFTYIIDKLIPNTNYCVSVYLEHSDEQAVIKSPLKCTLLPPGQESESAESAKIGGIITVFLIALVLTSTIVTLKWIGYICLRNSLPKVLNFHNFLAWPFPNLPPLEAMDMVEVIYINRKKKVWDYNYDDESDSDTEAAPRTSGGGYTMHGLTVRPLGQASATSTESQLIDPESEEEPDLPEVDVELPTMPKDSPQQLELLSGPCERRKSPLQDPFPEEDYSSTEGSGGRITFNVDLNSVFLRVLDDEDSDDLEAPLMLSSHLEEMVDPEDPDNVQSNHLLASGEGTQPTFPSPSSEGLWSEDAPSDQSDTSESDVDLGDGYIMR

B1: suppressor of cytokine signaling 1 (SOCS1) (natural protein, human (endogenous in PBMC), UniProt O15524 1-211, looked up)
chain: MVAHNQVAADNAVSTAAEPRRRPEPSSSSSSSPAAPARPRPCPAVPAPAPGDTHFRTFRSHADYRRITRASALLDACGFYWGPLSVHGAHERLRAEPVGTFLVRDSRQRNCFFALSVKMASGPTSIRVHFQAGRFHLDGSRESFDCLFELLEHYVAAPRRMLGAPLRQRRVRPLQELCRQRIVATVGRENLARIPLNPVLRDYLSSFPFQI
notes: SOCS1, endogenous in human peripheral blood mononuclear cells; detected by blot with anti-SOCS1; source: endogenous, lysate of PBMC from SLE patients or healthy controls
fold increase of association one hour after IFNβ over unstimulated cells [1]: < 1 fold
fold increase of association one hour after IFNβ over unstimulated cells [2]: ~6 fold
